Measurements reported in the supplement of paper PMC12636428.

System: Saccharomyces cerevisiae
Assay: transcriptional activation domain activity (GFP:mCherry ratio, weighted mean of sorted bins, harmonized to initial dataset scale) (arbitrary fluorescence ratio units); higher = stronger transcriptional activation
Settings: beta-estradiol 1 µM; induction time 4 h
Procedure: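 53-aa protein tiles (fungal proteins plus yeast TF control tiles) fused C-terminally to a DBD-estrogen-binding domain-mCherry synthetic TF, integrated in S. cerevisiae (URA3 locus) with a GFP reporter. Cells were induced with 1 uM beta-estradiol for 4 h at 30 C, FACS-sorted into 8 bins by GFP:mCherry ratio and barcodes sequenced. Activity is the read-weighted mean bin fluorescence (GFP:mCherry), averaged over barcodes (median 12); tiles under 50 reads were discarded. New active-learning values were harmonized by linear fit onto the scale of the initial (Hummel et al.) dataset. The assay saturates at low and high signal.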

| Sequence | transcriptional activation domain activity |
| --- | --- |
| KFWFFLLFYYGFYNLTALLMVSQYFNLYSFHWWPKSIGGLWSTFFFWLFSMFL | 58400 |
| MSLASLAAQRSNCMKRAVGCVLVGRERRVISTGYNGTPRGIRNCGEGGCARCN | 44500 |
| LYAWLSFFWVLVYVYFFSITVYLVVKGSRSILDLSHGSPSPLLTGSLFACLVW | 58700 |
| RGKSSSSSIGGAQEGAVRADETSHHHHHHHHQQQQQQQQQKQQQRHVQEQADI | 30600 |
| MDNQAGEQKPKQRRVADRERKRAVRACDGCRRQKEKCDGGVPCRRCIRLRRQC | 53600 |
| MLILLLLLLLLLLLLLLLIMIMIMILMIFLLLFMILIFLLVIMREFCWLWVLW | 44900 |
| TINLSLPPRDRYVLVATDYAHVLREMPCLYDEAVQHMKLPAGFFHLLGRILLR | 58100 |
| RKGSVAKEMIDGRVGRREKGGQGDNRGRKRTRRGSGERKRSDKKGRREKRNRK | 42300 |
| ANQCGEVDMLSRILLIVVTYLVILRRYRDALDIIERQALPMTLALGRPLWIGR | 62400 |
| IKDIEINDLRNRYTLTKGAVQKKGPRLVRPLRISSSPECTEPRPSPCLSVSLS | 45600 |
| FLPCDPYFLVSFFIQFFLLGFPFCLPLLSFLLLLLSFFHLSLEVFSLLLGDFH | 59400 |
| NELAVLVDGLNRVLLTHKDDIGIISHVMLAYMIAATRFKRLFVSGGGYMLFMP | 45800 |
| HLCHLVPSLPFHLPFFFFEPFLSKTFTSFFLFFFLWLSPLNTNHPPIFLFFHT | 80200 |
| SGSSKPRRAEDGRKSSRRDHSREREGSNGGHHRSRSGRDGSASPKRSSSSRRR | 16800 |
| DFDVNEFDPQVLFSTGTRTVEFMDDQNQPSSASAFLSTARPNHYSTHTPTTDV | 75300 |
| IISARDAGNGEEAAAQNVLNCFEYQFPNLQTIQSLVHEQTLLSQLASSATPHS | 75200 |
| LSPGKPHQGMVRVRSPNNMVAFVNLLVRLCDLGFPAHWISDYVQSMLMDKVVT | 66400 |
| YAEWLIEPEQNNGTWVADVLWPAINLDLQWISLHWNQSSWDLWWPPVWGGSYW | 53200 |
| GSTNRSGDGSSDDERRKSRRRGRRRKASVSSSSSGGSKSSSTTSRSRSRSRSR | 7680 |
| EGAADGRDEGEKSKVQKVGKACVYCQRSHMTCDESRPCKRCVSRKIADLCHDR | 29900 |
| VADVMLQRSTLVIGYCLVITIICCSVFLLYSMDFLSSCISFIWIGMVTLMICL | 41500 |
| GFTFYFSLHFHIFHIFHYLWEPRATILFFLTSLLFFFFTPIFTFMHCIIFIGF | 78900 |
| MRHVASRWPILPRLLVPIFHLLAWFLIPVGRLCIRSFPLIFSVVCFLCAFSSC | 51100 |
| HKRRRDSVMMDYDLSNFFSSRQLDISKVLNGTEQNNSHVNDDVLTLSFPGETD | 35100 |

| Sequence | transcriptional activation domain activity |
| --- | --- |
| RNLMVIVLVVGNLRLVIENIQKYGVLICIRCHDFRQHDVMLGLLLYFLIPCHL | 53400 |
| GVVWCGVIFGFVAFHILCLFDVFFSFFFFFFEFWFWFFGFVYLNGLGWVGVGW | 40100 |
| LAMQGFFRTFGLLCINFDSAFRLATFFLPNMIQYTGYLIPTFQMKRWLFWISY | 43200 |
| DLLDQMILGLLRYCEADILVPKLRLLGATDRARMELLDAYSCKVWLLLLMFVT | 56500 |
| KQYCVRPNSGRIEPGKDVEVQVLLQAMKEDPAPDAKCRDKFLVQSVAVTADKE | 44600 |
| MGLSDWPRVLSWHASISLVYLPFWVVVSLVWRYHIWTLSSVVLIIFIHIIFGL | 31700 |
| MELLSLLFFLFFFFFLYSLFGYASTLSFLPHHLFSFLTIYFISYFCDILFFEF | 44900 |
| VPLPELEPKVVLELRAVVVQVKQLDEEPPLDLEQRVELVPTGQLEQRAAPVLR | 35000 |
| RQESSPRLPSPSHTQQRERNQTPCAARSSSSSPRRPRPQPQPSTSAPSSPASP | 29400 |
| SGPSRERYFLFVFLGSFFWYFFPGYLFQALSWFSWVTWIWPHDTAIAQLFGYF | 52100 |
| IVFLFLCFAGFWMCVVCLLLLLYTAVPLIPPHSSSSFDSFGLFMLLLVSCMRF | 48000 |
| LVGLDGRAKINCHFFAYVAFGSASLLVVFHVAFLINVSDVVLLLVMLVGLLRL | 31900 |
| WHIRCVLLLVAFLHICYQVSYCACGLILVCLNFIFVRQPGGLEMLLTLKTAFY | 57800 |
| MPVGIVLQLIAAVQYHLYTAMLFTWTDYKTIFFPYLLKCCLWVWVHQLLCNVS | 56900 |
| SGGKTMVSGSFAGESGRLQGSGPFGRGGGRESREQAYDNGRAKIARLAHGLRL | 22400 |
| MEGYELRMVALLLFSLLFVVAKKRGVHTNPSRLAVFVVLLRLCFVFCCLLFLA | 85000 |
| RDEAGGGARRESKKAGARRGRTAEKRGGRGHEGRRQEGGKATKAEGGAEGEGE | 46500 |
| NWHHSIQVPYSFVANYDHPVCHMLHRWLPLYIPAVALRMHILTYLLLVAFFSL | 57700 |
| VDILLKRISTFSYTDSLTMSVAGQLRILYRFINVFYTARDLIGFLALVEKALD | 22700 |
| IYYDPASRDKVYCSRAPIAYVYKRLVRMALESRFVQVAPVALKVLGIVLVMLY | 62500 |
| FILGYYWGDARLFGLSVRFMSLFSWFRVVHRVLPRLLPMRFKGPGKYVVTYDA | 58500 |
| MSLASLAAQRSNCMKRRVGCVVVRDKRVVSTGYNGTPRGLRNCGEGGCGRCNE | 21100 |
| ADPNGAAAATTAAAPEKKAEEPVTPAKSSAAPASTSSTPASTNTTEKKKKNRL | 34700 |
| RVFTVPGKCFFDALAADSTDASCTEESLKKIWNELHTTSSEIEPWSNGYIDIS | 98000 |

| Sequence | transcriptional activation domain activity |
| --- | --- |
| GGAAKPAFGAAPSGGLFGSTANTTANTGGFGGGFGSGTTAASTSSPFGGGAAS | 27700 |
| MSDATPTSARKAMAPRRSHRKSRLGCANCKRRRIKCDEQKPACSNCVKHDIRC | 24400 |
| QSGFNIHLKDAGAGAHMELLTLDQILMFFQGLNNLNLLYFWGVGFDRLAILAF | 59200 |
| FVARLFQSLRRWWDSGLTTHLINASLFFISDGGKYFMGILCYFFQHLWRHHGM | 47900 |
| MYFVYTYSGLAFFFFFSFFWCTSIYLNILLVLFYLALGFCKVYFLLLFYLPKT | 39900 |
| FPIRIYSYVKLKWHLFLFDYCYFASMLNLIYLWILPNSTLLFTICYCAAHGPL | 61800 |
| NILRPSLGCILFILIRYVSIIVMVVSNYGVLATSFTVEVCNRYYLVAPVFKVL | 46800 |
| KEEEDRKRAEEEEERERERRRQDEVDRRRRMQDEAKQREAEAKKQAARAAALA | 35500 |
| ETVLKDLKSNQNIDTTVQKLFANCLFYARRIALIHPNLTSIKALLLLMVALEC | 81600 |
| IVITCLPVTLLLFGKMVDVLDDYYLGIFELVLLFFAFYIFPIFYIFARVILLV | 53800 |
| KLGAAGGGRGSERDKRRRGEGERGGGDAVARAGEGEGRGRGRRRRKRSAACAG | 39200 |
| KKGTIMTIASPSTVRRNMYDWLPSLFYFMPNSILGMWFDMTLPKLFFFLFLSQ | 63400 |
| LSTLFYIFCRYALVANFLYSLSIIKGSHIINCDIGYMICGVLSIFGHIGIIAV | 49800 |
| MLLLLIIRKVLILGKPFFINHLHILLYPDTVLSPFLLLSFPLTLPLSLLLLLL | 106000 |
| MKLVCHSLQLHFLSILVLEDLLIATLRVAQSCITAFFWRNHFSFTCLCLLTML | 63200 |
| LLAVDPNVWSHFDIVVLEFSRHYIHFHWKSLLWLVGPVVVWGWMVCTLLVWFI | 49400 |
| MALPVIFLFFLHVNILLLCRRFLLVFFLLLVFFLLLVFFFLLLVFFLLLVFLL | 66200 |
| MTMRKSFEYSFSREIYFLFFFLFFSFLFFLSFLSFSLSLFFFFPLHPGLFRLV | 54400 |
| SLPSTTPAGAPPTDAAKPAGGLFGNTSAQASTGSSGLFGNAAKPATTSASSAQ | 16100 |
| LVWLDNWPAGLKLNTELSRFLCLCFMSLTDIWGNLLAPYLPLILRIIGIMGRT | 57200 |
| NGIFILHHKWVIPTPFASHAFNPFDGFLQSLPYHLYVFMLPMHKWLYLGMFVF | 71400 |
| EAEDAPAAAVSIEEDAPVKEVEAPAPEPEVLEPEKPKEPSPTPVAAATKPAAP | 49100 |
| MCTLKLLVLLRIYFPTYISFPFFSPSLLSKCHSFISFSYVPWSLVTFLIYLPS | 75600 |
